From patent US20040220384A1 (Takeda / Millennium, published 2004)
Non-standard residues stand in square brackets, D forms with d. No end group written: not given here. Trp(6-Br) = N[C@@H](Cc1c[nH]c2cc(Br)ccc12)C(=O)O; dTrp(6-Br) = N[C@H](Cc1c[nH]c2cc(Br)ccc12)C(=O)O

T1: rat GPR7 (rat TGR26) (rat, UniProt Q56UD9 1-329)
T1 sequence: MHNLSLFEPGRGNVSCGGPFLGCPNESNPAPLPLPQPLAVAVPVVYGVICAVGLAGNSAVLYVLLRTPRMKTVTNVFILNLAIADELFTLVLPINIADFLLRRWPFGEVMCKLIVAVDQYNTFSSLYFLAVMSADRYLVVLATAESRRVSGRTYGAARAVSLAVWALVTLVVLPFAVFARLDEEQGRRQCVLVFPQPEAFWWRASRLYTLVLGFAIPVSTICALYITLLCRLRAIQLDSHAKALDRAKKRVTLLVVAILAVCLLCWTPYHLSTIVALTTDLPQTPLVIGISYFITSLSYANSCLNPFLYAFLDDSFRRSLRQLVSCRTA

T2: bovine GPR8 (bovine, UniProt Q8MJV2 1-336)
T2 sequence: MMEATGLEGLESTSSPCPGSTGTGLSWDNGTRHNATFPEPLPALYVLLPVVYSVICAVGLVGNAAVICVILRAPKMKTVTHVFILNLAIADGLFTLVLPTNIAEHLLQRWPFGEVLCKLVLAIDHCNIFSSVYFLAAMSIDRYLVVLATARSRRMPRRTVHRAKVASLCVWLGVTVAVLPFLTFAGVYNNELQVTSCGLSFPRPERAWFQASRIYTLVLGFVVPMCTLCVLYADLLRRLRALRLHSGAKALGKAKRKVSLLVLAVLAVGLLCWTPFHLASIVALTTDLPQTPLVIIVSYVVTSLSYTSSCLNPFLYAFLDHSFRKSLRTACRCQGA

T3: bovine GPR7 (bovine, UniProt Q8MJV3 1-331)
T3 sequence: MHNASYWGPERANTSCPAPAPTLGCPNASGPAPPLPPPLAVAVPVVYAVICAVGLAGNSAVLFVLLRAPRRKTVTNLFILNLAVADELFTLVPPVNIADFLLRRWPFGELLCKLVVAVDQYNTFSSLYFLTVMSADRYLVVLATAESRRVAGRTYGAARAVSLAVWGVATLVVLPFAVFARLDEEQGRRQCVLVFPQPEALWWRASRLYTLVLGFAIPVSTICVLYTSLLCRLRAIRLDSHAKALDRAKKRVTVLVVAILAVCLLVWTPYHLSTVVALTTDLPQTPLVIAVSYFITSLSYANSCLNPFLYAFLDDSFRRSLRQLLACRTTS

T4: human GPR7 (human, UniProt P48145 1-328)
T4 sequence: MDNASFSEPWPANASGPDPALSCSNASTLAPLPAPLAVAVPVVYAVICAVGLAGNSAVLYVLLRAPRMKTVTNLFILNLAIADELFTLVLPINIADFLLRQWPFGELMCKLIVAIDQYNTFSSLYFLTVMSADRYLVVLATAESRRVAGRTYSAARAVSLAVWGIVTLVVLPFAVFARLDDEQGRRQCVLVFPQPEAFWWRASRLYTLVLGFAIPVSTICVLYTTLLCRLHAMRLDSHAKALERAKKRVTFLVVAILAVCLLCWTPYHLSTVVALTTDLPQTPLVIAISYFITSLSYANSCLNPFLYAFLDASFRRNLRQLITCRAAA

B1: DTrp(6Br)1-human GPR7L(29) (peptide)
peptide: [dTrp(6-Br)]YKPAAGHSSYSVGRAAGLLSGLRRSPYA
B2: LTrp(6Br)1-human GPR7L(29) (peptide)
peptide: [Trp(6-Br)]YKPAAGHSSYSVGRAAGLLSGLRRSPYA
B3: Trp1-human GPR7L(23) (peptide)
peptide: WYKPAAGHSSYSVGRAAGLLSGL
B4: DTrp(6Br)1-bovine GPR7L(29) (peptide)
peptide: [dTrp(6-Br)]YKPTAGQGYYSVGRAAGLLSGFHRSPYA
B5: LTrp(6Br)1-bovine GPR7L(29) (peptide)
peptide: [Trp(6-Br)]YKPTAGQGYYSVGRAAGLLSGFHRSPYA
B6: Trp1-bovine GPR7L(29) (peptide)
peptide: WYKPTAGQGYYSVGRAAGLLSGFHRSPYA
notes: also called bovine GPR7 ligand B; non-brominated GPR7L
B7: Trp1-rat GPR7L(29) (peptide)
peptide: WYKPAAGSHHYSVGRAAGLLSSFHRFPST
notes: also called rat GPR7 ligand B
B8: Trp1-rat GPR7L(24) (peptide)
peptide: WYKPAAGSHHYSVGRAAGLLSSFH
notes: also called rat GPR7 ligand A

Tests used:
rat GPR7 (rat TGR26) = molecular target: T1, rat GPR7 (rat TGR26); experiment: cell-based or functional assay
bovine GPR8 = molecular target: T2, bovine GPR8; experiment: cell-based or functional assay
bovine GPR7 = molecular target: T3, bovine GPR7; experiment: cell-based or functional assay
human GPR7 [1] = molecular target: T4, human GPR7; experiment: cell-based or functional assay
human GPR8 = human GPR8 (human, UniProt P48146 1-333); experiment: cell-based or functional assay
human GPR7 [2] = molecular target: T4, human GPR7; experiment: binding inhibition of iodine-labeled hGPR7L-23 on human GPR7-expressed CHO cell membrane fraction
Protocol: The peptides shown in TABLE 3 are those obtained by diluting the stock solution of […] or 10⁻³ M with the assay buffer in 10⁻⁵ M, 10⁻⁶ M, 10⁻⁷ M, 10⁻⁸ M, 10⁻⁹ M, 10⁻¹⁰ M and 10⁻¹¹ M. As NBS, hGPR7L-23 was prepared in a final concentration of 10⁻⁵ M. The sample solution and NSB prepared were dispensed on a polypropylene-made 96-well plate, the assay buffer was dispensed thereto to make the total volume 50 μl, and 25 μl of the iodine-labeled product dilution was added thereto. After agitation, 25 μl of the solution of human GPR7-expressed CHO cell membrane fraction were dispensed thereto and agitated, followed by incubation at room temperature for 1.5 hour. Using a cell harvester for the 96-well plate, the culture medium was adsorbed onto a filter unit, which had previously been wetted with an assay buffer (50 mM Tris-HCl, pH7.5). After washing 5 times with the assay buffer, the filter unit was thoroughly dried. After 50 μl of a liquid scintillator was dispensed thereto, the radioactivity was counted on a Top Count (Packard) and the data was analyzed in triplet (FIG. 33).

Sequence of human GPR8 (P48146 whole entry): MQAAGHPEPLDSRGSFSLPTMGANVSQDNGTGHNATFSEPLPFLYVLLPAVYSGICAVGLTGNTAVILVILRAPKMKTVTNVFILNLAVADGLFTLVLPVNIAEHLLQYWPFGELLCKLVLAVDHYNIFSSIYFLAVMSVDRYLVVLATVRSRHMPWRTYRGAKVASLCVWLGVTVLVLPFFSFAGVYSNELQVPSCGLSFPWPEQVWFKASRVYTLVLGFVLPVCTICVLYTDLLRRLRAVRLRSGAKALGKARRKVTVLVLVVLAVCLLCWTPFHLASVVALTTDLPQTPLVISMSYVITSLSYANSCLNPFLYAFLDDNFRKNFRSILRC

| Binder | IC50 of intracellular cAMP production suppression (cAMP production inhibition rate) (rat GPR7 (rat TGR26)) [nM] | IC50 of intracellular cAMP production suppression (cAMP production inhibition rate) (bovine GPR8) [nM] | IC50 of intracellular cAMP production suppression (cAMP production inhibition rate) (bovine GPR7) [nM] | IC50 of intracellular cAMP production suppression (cAMP production inhibition rate) (human GPR7 [1]) [nM] | IC50 of intracellular cAMP production suppression (cAMP production inhibition rate) (human GPR8) [nM] | IC50 (human GPR7 [2]) [nM] |
| --- | --- | --- | --- | --- | --- | --- |
| B1 | 49 | 424 | 360 | 106 | 770 | 13 |
| B2 | 0.47 | 51 | 1.8 | 0.44 | 32 | 0.32 |
| B3 |  |  |  | 0.58 |  |  |
| B4 | 2.5 | 34 | 77 | 35 | 198 | 6.1 |
| B5 | 0.21 | 4 | 1.9 | 0.58 | 9.7 | 0.34 |
| B6 | 0.25 | 5.4 | 1.2 | 0.43 | 8.1 | 0.31 |
| B7 | 0.3 | 14 | 1.2 | 0.86 | 8.8 | 0.34 |
| B8 | 0.18 | 3.5 | 0.51 | 0.31 | 2.8 | 0.3 |
